Measurements taken from the DeepSol protein solubility set.

Test: soluble on expression in E. coli; label from the status in PepcDB or PDB records

| Sequence | soluble on expression in E. coli |
| --- | --- |
| MKKMNHVLQVLMLSASLVASPFTYANEEKGLEIAQERKARDEGWGDSIATMEMILKNAQGESSTRLMRLKSLEVEGDGDKGLTIFDQPRDVTGTAFLNHSHTIGADDQWLYLPALKRVKRISSRNKSGPFMGSEFAYEDLSSFEIEKYRFNHLKDEKFNGQDVFVLEQIPTDKNSGYTKQVVWLDKAHYRPLKVEFYDRKGALLKTLTFANYKQYLDKYWRAHTMAMTNHQTGKSTELNTSDLRFQTGLEENDFNKNVLKRVK | not soluble |
| MGEENQPNYTISQENWSLHRKGYDDQQRHQEKVQEAIKNNLPDLVTEESIVMSNGKDVVKIPIRSLDEYKIRYNYDKNKHVGQGNGDSKVGDVVARDGSGGQKQKGPGKGQGAGDAAGEDYYEAEVSILELEQAFFRELELPNLKRKEMDENRIEHVEFNDIRKTGLWGNIDKKRTMISAYKRNAMGGKASFHPIHQEDLKFRTWNEVLKPDSKAVVLAMMDTSGSMGIWEKYMARSFFFWMTRFLRTKYETVDIEFIAHHTEAKVVTEEEFFSKGESGGTICSSVYKKALELIDNKYSPDRYNIYPFHFSDGDNLTSDNARCVKLVEELMKKCNMFGYGEVNQYNRHSTLMSAYKNIKDENFRYYILKQKADVFHAMKSFFREESGEKMALEHHHHHH | soluble |
| DPVSDITDLNYWKTPEQFDSFVFGLHSRFRSHSWNMFLLGEARSDVFGGIPFGGEATQGMERFPYNTLNAENPGISGFGDLYQNINQMNLFISRTLHTDVLTESARNYYLGQVYGLRAYYMYQLYRSWGDVVFTEEPSLGFEVGKLAKAATPAAEIFEQVKKDIESSLSYFGSDYTIKEKKSLWSKAATLMLKADVYLWSAHRDGGEGDARTAKNALVDIQNNISRSNLDLMDTYQGVFAYDNKGNKEIIFTIHNELFEYNLWNGNNDLFPQADYLGKFYNADGTLINTSVENNFGIMRLMVKLENFKKFLPGDTRRDVTLKDVYNKVENGKLELVGVYPHKYWGVMNGSTRVRCDDYPIYRYSDLLLMLAEAKVLLGEDPATEINRVRRRAFGDAYDASTVGFPNQEVDKRPADAVLQERLFEFMLEGKRWYDLRRFGDSYVLDYTPAEPARLLWPINQGALTNNPLLKQTVGY | soluble |
| MLERTQVFVDTSYLLASFYNSWETGARAQLEIDLPEVVGVLGRMIEQQLKQPVQRQMWYDGIPDSGPHRYQRALRTCDGVQLRAGQLIEWGERRTQKAVDTRLVADLVLAGVRGQCSDIVLVSGDADMIPGVQEAANAGLRVHLYGFGWDSMSSQLRHCCDTTTILDPRED | not soluble |
| MGSDKIHHHHHHMSIAVTTTDPTNTGVSTTSSSSLTGSNAADLQSSFLTLLVAQLKNQDPTNPMENNELTSQLAQISTVSGIEKLNTTLGSISGQIDNSQSLQASNLIGHGVMIPGTTVLAGTGSEEGAVTTTTPFGVELQQAADKVTATITDKNGAVVRTIDIGELTAGVHSFTWDGTLTDGSTAPNGSYNVAISASNGGTQLVAQPLQFALVQGVIRGNSGNTLDLGTYGTTTLDEVRQII | not soluble |
| GSHMGQNDLVKTLRMNYLFDFYQSLLTNKQRNYLELFYLEDYSLSEIADTFNVSRQAVYDNIRRTGDLVEDYEKKLELYQKFEQRREIYDEMKQHLSNPEQIQRYIQQLEDLE | soluble |
| MNIIKANVAAPDARVAITIARFNQFINDSLLDGAVDALTRIGQVKDDNITVVWVPGAYELPLATEALAKSGKYDAVVALGTVIRGGTAHFEYVAGGASNGLASVAQDSGVPVAFGVLTTESIEQAIERAGTKAGNKGAEAALTALEMINVLKAIKA | not soluble |
| MIGLMKGLAYTLKELTREKVTYDYPHEPLPLPDRFRGIQKFYPEKCIVCNQCVNICPTECIQLTGKKHPDPTKKGKVIETYNINFEICILCDLCTEVCPTEAIVMTNNFELAEYSRDALYKDLAWLDENDTNIRRENKP | not soluble |
| MIRFCSLYSGSSGNAIFLSTGKTKILIDAGLSGKKITEALVSIGEKPSELSAILVSHEHSDHIKGAGIISRKYDVPIYANENTWAAMENLIGPVSVKNKMYFNTGREFEIGDVIINPFPIPHDAVEPVGFNFFVENSKITTATDIGHMNRELLEYIEGSDFLLIESNHDIEMLKVGPYPWPLKKRILGDKGHLSNEMAGKVVAHLAERGTRCFMLGHLSKENNFPELAYETVRNILKERNIDIERDIKLSVALRDKVGQVVEILEHHHHHH | not soluble |
| MSLYRLLIVEDEHLIRKWLRYAIDYQSLNILVVGEAKDGKEGAQLIQEEQPDIVLSDINMPIMTAFDMFEATKGQSYAKIILSGYADFPNAQSAIHYGVLEFLTKPLEKQALIDCLKTIMARIEEHKEKHLQEHTELYLPLPQANDQVPEVIKDMLAWIHSHFHGKIVISQLAHDLGYSESYLYTVTKKHLHITLSDYINQYRINQAIQLMFREPDLMVYQIAEAVGIYDYRYFDRVFKKYLGQTVKAFKEEHIFKQMDEGHHHHHH | soluble |
| MVDSYDDSLDGEKSKTQVKRELHALVDLGERLTTLKADVLAKLPLTDALRKALAEAPKHTANIARKRHILFIGKLMRDQDQEAILVLLDQLDASTRQYNERFHNLERWRDRLIAGDDADLEKFVIEYPDADRQQLRSLIRQAQHEVARNKPPATSRKIFKYIRELDELQ | soluble |
| MNETKVLIEKITEGIQEKKGKNIVIADLTNIDDTICKYFVICQGNSPSQVIAIVDSIKEFTRKGAGTKPSAIDGQRNAEWVAMDFSDVLVHVFLPEARNFYNLEHLWADAKLTTIPDID | soluble |
| EVQLQQSGAELVRPGALVKLSCKASGFNIKDYYMHWVKQRPEQGLELIGWIDPENGNTIYDPKFQDKASITADTSSNTAYLQLSSLTSEDTAVYYCARDTAAYFDYWGQGTTLTVSSAKTTPPSVYPLAPGSAAQTNSMVTLGCLVKGYFPEPVTVTWNSGSLSSGVHTFPAVLQSDLYTLSSSVTVPSSTWPSETVTCNVAHPASSTKVDKKKIP | soluble |
| MGSDKIHHHHHHMFSYEVIRQFTETEHHLYRYIMDNRDKVMFMRVRELSEVTHVSPASIVRFTRKLGCEGFSEFKVKLKQEATREVKKKTADTVEVLEEFFERTMNRDYDHVLDAAAEIINEADLVVFFGIGTSGILAEYGSRFFSNMKKRTFYIKDPFYPNPGEQFKNKAVMIILSVSGETDQVLEQAQNMQQYGSRIISITNTSHNTLAGLSDVNIPYYVTQEMVDKTNITTQIPVLFLLEAMAKKNYNQEQEE | not soluble |
| MSLKKLVIFDLDGTLLNTIADLAHSTNYALNKLGYPTHEIEKYNFMVGNGIDKLFERALPEGEKSKENVLRVRKEFVPYYDIHNADDSRPYPGIPELLSYLQDAGIQITVASNKYQAATQKLIDHYFPEIHFTAVFGQREGIKVKPDPTVVFDILEVAKVTKEEVLYVGDSGVDMQTAANAGVTVCGVTWGFRPRAELEEFSPQYIVDTAEEIKRLILEGHHHHHH | soluble |
| MGSDKIHHHHHHADDSVKIGFITDMSGLYADIDGQGGLEAIRMAVADFGGKVNGKPITVVYADHQNKADIAASRAREWFDRDGVDMLIGGTNSATGLSMNTVAGEKKKVYISIGAGADTLTNEQCTPYTVHYAYDTTALAKGTGSAVTKQGGKTWYFLTADYAFGKALEKNTADVVKANGGQVLGAVRHPLSASDFSSFLLQAQASKAQILGLANAGGDTINSIKAAKEFGITKTMKLAALLVFIDDIHSLGLETTQGLVLTDSWYWNKDATTRKWAERYFDKMKKMPSSLQAADYSATMTYLNAVKAVGSTDSDKVMAQLKKTKIDDFYAKGYIRQDGSMIHDMYLMQVKTPAESREPWDYYKITATIPGEQAFTTKAETRCALWK | not soluble |
| MQFVWEAERTKAKVNAMLCLKRQAVANPLFGKGRLKIFSDDLLFIEQIPQTADNPTDKLLQFRVDFLLFPRKANKSRKNIKNVKKLRTNSLISCNYM | not soluble |
